The series in a line: label from the status in PepcDB records.

The values that follow come from a protein production outcome set (Wang et al. 2014).
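Further: failed if final PepcDB status was selected cloned or expressed and not failed if soluble or beyond.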

For the sequence “MGTEAEQPSPPAQQQDQENPPLCKAQNPKPARLYRFVLIFVAGSLAAWTFHALSSTNLVWKLRQLHHLPTAHYLQTRDEFALYSVEELNAFKEFYDKSVSDSVGASYTEAEQTNIKEALGALRMAQDLYLAGKDDKAARLFEHALALAPRHPEVLLRYGEFLEHNQRNIVLADQYYFQALTISPSNSEALANRQRTADVVQSLDERRLESLDSKRDALSAIHESNGALRRAKKEAYFQHIYHSVGIEGNTMTLAQTRSILETRMAVDGKSIDEHNEILGMDLAMKYINASLVQKIDITIKDILELHRRVLGHVDPIEGGEFRRNQVYVGGHIPPGPGDLALLMQRFERWLNSEHSSTLHPVNYAALAHYKLVHIHPFVDGNGRTSRLLMNTLLMRAGYPPVIIPKQQRSKYYHFLKLANEGDIRPFVRFIADCTEKTLDLYLWATSDLPQQIPMLIQTESEAGERLAQMQSPNVAQRSSILEFYESGSGDLP”, the protein production entry is given as “failed”.

As for “MGTNKQTALLPTVNQAITDGAVFGVSYSLLGPQENALHVIGYQGAGDDRLPLLPQARYDLASLTKVVGTTTRLLQLLIAGKLELTQPIGSLVSGLRYPQLTIEQLMLHRSGLPADVPDAHALDQAGLVHAVKTMAAVAAPDTETIYSDLNYIILGWAIAALDGDLATSLTQHIFAPLGMHATGYRPQHVAAADFVPTENVPARGGIIRGTVHDHKAFLLDGVSGHAGLFATLADLTIFTRLLAGLPVTNGDHVLPPAAFVLLDRFCKGGRTLGWRCWAQGRHQYWHTGFTGTSIAFDRDTQCGFVCLTNRIYPSRANRAWLAVRRQLLTQFFEVATSWPD”, the protein production result was “failed”. “MGTQRSDTRDQSARLMRRATYASVTVAMTLVVAKLVAWVLTDSVALLSTLIDSLIDVGASLVTLLAVREALTPADEEHRFGHGKAEPLAGLGQAAFIAGSGIFLVIEAAGRLTAPLPVQRGEIGIAVMVFSILATIGLVAYQRRVIAQTKSVAISADSLHYAGDLLINLSVIVSLGLAMTVDLPILDPLFAIAIALWLMKNAWTIGANSVNLLMDRELPPEDRVRIIKLALENPRVFDIHDLRTRSSGPQTFIQLNVELDGEMTLSASHAIVTEIENRLRAAFPGAEVLIHQDPAGIQEDHHPDFAYEDTSALLEADAASQPRRL”: the protein production entry is “failed”.

Consider “MGTRRRRGRKAIAGLPGYLLLLVLVLVWLFQELRPGPVPPAETGEAEVYFMPEEGPRAKARLLALMDGARESLEGAFYEFRDLEVAQGLLRAKARGVRVRLYGESDYREDFRRYLVAASLGQREEPPRVRFAELKERVKPLSLDCEEVVGIPICYDEREGFMHHKFLVVDGRAVWTGSTNMTWNAFARNNENSLLLPSPTLAQGYAREFEALFGGQKEGLGQPVAFALEGVEGVAYFSPRGGRLAREALLKRLSEAQREVLVAAFVLTDREVLEALLQARRRGAEVKVLLETRNLGTSREEALLEEGLEVRQDANPYTMHHKVMLLDGTYVVTGSYNFSVRAHEVNNENLLVLKSPSLAERYRKEVLRLWEAGSPL”, for which the protein production result is on record as “failed”. As to “MGTRWFAKNTTMSKNSIVIGVDLDGVCADFYGRMRQIASEWFERPIDELPEEVSWGLSEWGITNPSQYDSLHRFAVTQRELFSSMEAIPGARKYLRQLSDEGFRIRIITHRLFIHYFHATAVQQTVNWLDSHGIPYWDLCFVKEKTQVGADIYIEDSPENVAQLRGRGLFTICFGNSTNRHIEELRAASWQDVYDMIKAFVT”, the protein production entry is “failed”.

Regarding “MGTYRKRFNEKARSGHMAKLKELKRIRNKQFTRQDENDERVENPDSAPAESSTTEPNANAEILEPLTEEEKKMKKRKLQELFTPKESKVSRLKKKRLDKFIEHQLKREERKTIIGKLQDYKIDTSLLTSSKRLGEGRQTKKEEFKEALSLERQGRGNEQTNEILYEEYEPKVWDEYGEGGSSEDDDGEDDFEASFGSMPKPTDNEEKKSSGFIDHRPAKFGGSGLSFGFSNIKVINKESKTPKKKYNWRQRVEMEELKKHGKEDEMDFDTTSEDDDEEEDQEEEDKMHPSENPLEEVESADSETGSEKFDQNDVANEFKDWANQEIKKLEGRDQELVTPTLNIDYKPIIRKEDLDDGLQEAYVPINENSTRKAFYVEVSRSDEIQKARIQLPVFGEEHKIMEAIHHNDVVIICGETGSGKTTQVPQFLYEAGFGAEDSPDYPGMVGITQPRRVAAVSMAERVANELGDHGHKVGYQIRFDSTAKEDTKVKFMTDGVLLREMMHDFKLTKYSSIIIDEAHERNINTDILIGMLSRCVRLRAKLHKENPIEHKKLKLIIMSATLRVSDFSENKTLFPIAPPVLQVDARQFPVSIHFNRRTAFNYTDEAFRKTCKIHQKLPPGAILVFLTGQQEITHMVKRLRKEFPFKKNSKYNKDLETPVSKMGINSKTTDLEAEDIDFSVQVIDQDKFKSAIRYEEDEGNSGNGEDEEDEEEEGFEEVLTEGQTANDPLYVLPLYSLLPTKEQMRVFQKPPQGSRLCIVATNVAETSLTIPGVRYVVDSGRSKERKYNESNGVQSFEVGWVSKASANQRSGRAGRTGPGHCYRLYSSAVFEHDFEQFSKPEILRMPVESIVLQMKSMAIHNIINFPFPTPPDRVALSKAIQLLQYLGALDNKEMITEDGKKMSLFPLSPRFSKMLLVSDEKACLPYIVAIVSALSVGDPFINEFELGINEISRKPNPDENLDDKIREHDESTPGMDPELKKELRSKFYKSRSQFSKLDKFSDVFRLLSVVSAMDYVPKEQKEIFMKKNFLRGKLMEEIVKLRKQLMYIIKSNTSKENIAVVIRNEDLKSDIPSVIQIKLLKQMICAGFVDHVAVRADVLFPDDAKITNRTSIINIPYIPVLATRTPNIEDCFVYIHPTSILNNLGEMPPKYMLYYSLHLGGNNKTRMNTLCDIASTPLANIARKGLLLTYSKPLTGQGLKTVNLSPTERYCYVVPRFGSTVDNDLKIGWDLNPIAVHQKKQKGQWTVIKFITRKGFQTITGEEKEKK”, the protein production entry is listed as “failed”.

For the sequence “MGVALLLLVGGAELLVRSALRLAQRLHVRPLIIGLSLVAFGSTAPQLTVSLQAAYQGAPDVAVGSVIGSNIFNVLVILGLAALIIPLRVSRQLVRLDIPLMILASGLVYALSANAHLGRVEGALLLLGLAGYLAMLWHQSRHYARTYPAPDAARSGAGRFWSGTLLQILVGLGLLSLAGHLLLEAAIEVATDLGLSERIIGLTVVAICTSLPELAAALIAALRGEREIAVGTVIGSNLFNLLAVLGLTALITPEPLSISPNALSFDLPVMLGVAALSLPVFYSGYRITRAEGLVFLCLYLAYGLHVAAFTMGMPLAGRLERLMLFYVLPVLATVLLYTTVRAWRRQH”, the protein production entry is listed as “failed”. The same measure for “MGVKFTLMGTTAGLGVPAFHCNCIACREARADPFWARTRSGAVLETGKENILIDASPDLSKQLLRERIQSVDYLFVTHWHYDHFGGIGDLEYYVKLERKWPVALFLPPSAVDDFAKVYPFLEEVFVIEPWEFGKSYAFEGIELTVLPARHSIETGGILLAGSKRAAYFTDTAGLPAPTARQLQGVDTLICDATFNGANWFPHSHMNWQEAIALGESIRAQHTVLTHLAMHYSTPITAAQLQEKLKDYAQVSLAYDGMVLTI”: “failed”; for “MGVLRVGLCPGLTEEMIQLLRSHRIKTVVDLVSADLEEVAQKCGLSYKALVALRRVLLAQFSAFPVNGADLYEELKTSTAILSTGIGSLDKLLDAGLYTGEVTEIVGGPGSGKTQVCLCMAANVAHGLQQNVLYVDSNGGLTASRLLQLLQAKTQDEEEQAEALRRIQVVHAFDIFQMLDVLQELRGTVAQQVTGSSGTVKVVVVDSVTAVVSPLLGGQQREGLALMMQLARELKTLARDLGMAVVVTNHITRDRDSGRLKPALGRSWSFVPSTRILLDTIEGAGASGGRRMACLAKSSRQPTGFQEMVDIGTWGTSEQSATLQGDQT”: “failed”. Under “MGVPEINEYGQQVNDLVPGWQGAQVLRRTALNGRFCRLEPLDVDRHAADLFAAYALGDNSDWTWLASTRPESVTATAHWIAGKVNDDVLVPYAVVDLRSEQAVGIVSYMAIEREMGTVEIGHVTWSRRMKNTPLGTEAVWLLLKNGFDHGYRRLEWKCDSMNVASRRAAERLGFSWEGRLRQRLVRKGRTRDSDMLSIIDGEWPARDAALRAWLAAENFTADGQQIKRLEAFR” stands “failed”; under “MGVSFKISKVGRKFRPKISTELATPDSPKAIVLSGKPKATDDSNIGDVSGFSKPSLPDISPDHEVSFILSLYPNGYSIGKTSEAMQQISFRDVPKVLHPYDRAAEGLLSAIEAGRLPGDILEDIPCKFVDGVVICEVHDYRKHTSSQVSPVINKLRLKMSLENVVKDIPSMSDNSWTYGDLMVIMVARGL”, “failed”.

In the case of “MGVTLAKGGNVSLSKAAPNLTQVLVGLGWDARSTTGAPFDLDASALVCSSGRVLGDEWFVFYNQLKSPDGSIEHTGDNLTGEGDGDDESLLVDLSKVPAHCDKIVFPVSIHMADERGQTFGQVSNAFIRVVNQADGQELARYDLSEDASTETAMIFGELYRYQGEWKFRAVGQGYASGLRGIALDFGVNVS”, the protein production result is on record as “not failed”. The same measure for “MGVTLEGQRKESIWVLMRRQRARRALVKKIMIRPRKSVEASRRPCRAIHRRVKTLKELVPNTKTSEGLDGLFRQTADYILALEMKVKVMQTMVQVLTETNCV”: “failed”; for “MGWEFFSLETLQELARQYGYGAVFFGIALENAGIPIPGETITLLGGFLAGSGDLSYGGVLIAAIAGAVLGDSCGYWVGRWGGWPLLTRAAQLFNIPQEKLDQARHKFSQNGAAAVFFGRFVTLLRIFAGPMAGIVRMPYGKFLLYNIGGASVWAAITVSLAYFLGRVVTIEQIIAWTTQFSWFALAAVVGMVGIYFVFHFLQKRFDQTIESTIGDRPQ”: “failed”. The same measure for “MGWFFVFCAAISEIVGVIGLKMYSKDKTLANGAIYIGGFATSFAFLYTSFLFLQVSVAYAVWIGIGTAGAVLLNMFLFGESKSKARIISVFLIVCGVTGLKALS”: “failed”. The same measure for “MGYPPIRRFEYEHRGTETFTGRSPVPCHHAGIMSLYLRKQAYGVAPMKKIILSTIAALVASGSVFASYGTAAAQDYPYRPRYDRGYDRGGPPPPPYREHRRHNDGAAIAGGLAAGVIGGLIGGAIANGNGGPRYYEPPPPPRCWFEDRRVPNAYDGGWHMESMRVCN”: “failed”.
